Measured values published in patent US20230049732A1 (UNIVERSITY OF LOUISVILLE RESEARCH FOUNDATION, published 2023).
Substitutions are numbered along the chain they refer to.

B1: MAb #25 (antibody, V domains shown)
VH: QVQLQQPGAELVRPGASVKLSCKASGYTFTNYWMHWVKQRPEQGLEWIGRIDPYDSETHYNQKFKDKAILTVDTSSNTAYMQLSSLTSEDSAVYYCTSYYYGSNYVWHFDVWGAGTTVTVSS
VL: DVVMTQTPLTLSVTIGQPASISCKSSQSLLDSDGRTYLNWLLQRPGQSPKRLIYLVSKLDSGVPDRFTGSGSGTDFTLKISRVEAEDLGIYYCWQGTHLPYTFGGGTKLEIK
notes: Murine hybridoma antibody, supernatant; also called antibody 25
B2: MAb #91 (antibody, V domains shown)
VH: EVQLQQSGPELVKPGASVKISCKASGYSFTDYFMNWVKQSHGKSLEWIGRINPYNGDSFYNQNFRGSVTLTVDKSSGTAHMELLSLTSEDSTVYYCGAYRYDGYAMDYWGQGTSVTVSS
VL: DVVMTQTPLSLPVSLGDQASISCRSSQSLVHSDGNTYLHWYLQKPGQSPKLLIYKVSNRFSGVPDRFSGSGSGTDFTLKISRVEAEDLGVYFCSQSTHVPFTFGSGTKLEIK
notes: Murine hybridoma antibody, supernatant; also called antibody 91

What was measured:
[1] = target: T1, N399N400F401TDT404-VLPs of parvovirus B19 (parvovirus B19 genotype 1 (mutated), UniProt P07299 228-781); test: ELISA, intact VLPs coated, hybridoma supernatant
T1 construct: also called NNF401TDT-B19V; NNF401TDT
T1 chain: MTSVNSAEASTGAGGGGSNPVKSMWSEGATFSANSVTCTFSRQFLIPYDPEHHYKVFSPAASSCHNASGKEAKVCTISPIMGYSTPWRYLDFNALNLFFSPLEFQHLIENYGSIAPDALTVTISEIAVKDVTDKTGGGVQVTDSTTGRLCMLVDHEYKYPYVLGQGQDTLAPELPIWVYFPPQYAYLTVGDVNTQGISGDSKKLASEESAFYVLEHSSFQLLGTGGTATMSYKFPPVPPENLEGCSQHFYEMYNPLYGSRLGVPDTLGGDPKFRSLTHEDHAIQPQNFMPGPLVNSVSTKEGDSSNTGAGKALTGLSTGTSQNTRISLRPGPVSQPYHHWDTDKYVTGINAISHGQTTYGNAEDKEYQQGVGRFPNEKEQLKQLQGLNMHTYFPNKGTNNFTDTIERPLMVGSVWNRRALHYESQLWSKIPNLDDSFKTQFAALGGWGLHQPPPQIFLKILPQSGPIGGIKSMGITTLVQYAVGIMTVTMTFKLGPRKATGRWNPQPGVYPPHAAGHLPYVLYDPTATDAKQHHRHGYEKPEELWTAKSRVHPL

QQW401TDQ-VLPs of B19V = target: T2, QQW401TDQ-VLPs of B19V (parvovirus B19 genotype 1 (mutated), UniProt P07299 228-781); test: ELISA, intact VLPs coated, hybridoma supernatant
T2 construct: also called construct B
T2 chain: T1 chain with N399Q, N400Q, F401W, T404Q

[2] = target: T3, VLPs of B19V genotype 2 (Lali strain VP2) (parvovirus B19 genotype 2, UniProt P07299 228-781); test: ELISA, VLPs coated
T3 construct: Intact VLPs of non-mutated VP2
T3 chain: T1 chain with S32T, Q220E, T227S, S304T, N323S, M389I, N399Q, N400Q, F401Y, T404Q
Procedure: (§1) First, 96-well ELISA plates (Immunolon 2; Dynatech) were coated, either 1 h at 37° C. or overnight at 4° C., with 250 to 500 ng per well of B19V VLPs. Intact VLPs were re-suspended in PBS, and the disrupted VLPs were re-suspended in the following solution: 0.2 M NaCO₃, 0.01 M dithiothreitol, pH 7.0, to detect sequential epitopes. The plates were washed three times with PBS, then saturated with bovine albumin via PBS containing 5% bovine serum albumin (5% PBSA) for 1 h at 37° C. After washing three times, plates were then incubated with primary antibodies. Primary antibodies used were rabbit sera (at 1/1000), mouse sera (1/100 dilution) to B19V VLPs, or supernatant of hybridoma cells without dilution for 1 h at 37° C. Thereafter, plates were washed thrice with PBS, then incubated with alkaline phosphatase-conjugated secondary antibodies, with either goat anti-mouse or anti-rabbit IgG (H+L) (Sigma, USA) at a dilution of 1:5000 for 1 h at 37° C. After washing with PBS, bound antibodies were detected with an alkaline phosphatase chromogenic substrate (Phosphatase substrate, Sigma, USA), and absorption was measured at 405 nm. One percent PBSA and sera collected from pre-immune animals were used as negative controls. Human papillomavirus (HPV) and mouse parvovirus (MPV) VLPs were used to check the cross-reactivity of primary antibodies with other types of VLPs. All antibodies were diluted in 1% PBSA.

[3] = target: T4, wtVLPs of parvovirus B19 genotype 1 (VP2 only) (parvovirus B19 genotype 1, UniProt P07299 228-781); test: ELISA, VLPs coated
T4 construct: Intact virus-like particles self-assembled from VP2 alone, made in Sf9 cells with baculovirus; also called B19V genotype 1; Prototype Q399QYTDQ404
T4 sequence: T1 chain with N399Q, N400Q, F401Y, T404Q
Procedure: as §1

Binder	ELISA absorbance (405 nm) [1]	ELISA absorbance (405 nm) (QQW401TDQ-VLPs of B19V)	ELISA absorbance (405 nm) [2]	ELISA absorbance (405 nm) [3]
B1	3.26	1.53	2.54	2.67
B2	3.86	1.64	3.09	3.43
